From publication PMC4579851
Blank lines part the entries; values can stand above or below the molecule they belong to.

Molecular target: human ST2.Fc (extracellular domain of ST2 fused to Fc) (human) (UniProt Q01638)
Sequence of UniProt Q01638 (Q01638 19-328): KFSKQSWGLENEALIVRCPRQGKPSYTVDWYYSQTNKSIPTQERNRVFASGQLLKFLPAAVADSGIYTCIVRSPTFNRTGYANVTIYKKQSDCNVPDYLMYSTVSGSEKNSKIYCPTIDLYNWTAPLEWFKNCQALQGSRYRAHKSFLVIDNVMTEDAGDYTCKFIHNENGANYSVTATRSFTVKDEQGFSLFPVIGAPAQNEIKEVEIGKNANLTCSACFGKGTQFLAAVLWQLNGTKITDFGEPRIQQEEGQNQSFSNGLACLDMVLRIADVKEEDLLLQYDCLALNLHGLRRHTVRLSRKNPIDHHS

EC50 in a short duration signalling assay (NFκB p65/RelA translocation in HUVEC): 0.15 nM
Molecule: human IL-33 (amino acids 112-270), reduced form (from UniProt O95760 112-270) (ligand)

EC50 in a short duration signalling assay (NFκB p65/RelA translocation in HUVEC): 0.15 nM
B1: human IL-33 (112-270) complete Cys→Ser mutant (C208S, C227S, C232S and C259S) (ligand)
chain: SITGISPITEYLASLSTYNDQSITFALEDESYEIYVEDLKKDEKKDKVLLSYYESQHPSNESGDGVDGKMLMVTLSPTKDFWLHANNKEHSVELHKSEKPLPDQAFFVLHNMHSNSVSFESKTDPGVFIGVKDNHLALIKVDSSENLSTENILFKLSET
